B1: SG-17: 327 amino acid protein (SEQ ID NO:13) encoded by the genome of Eubacterium eligens (protein, listed as Eubacterium eligens)
chain: CNSKIDVKYDYNVEDYVQLGQYENISVQVDKTSIENELIESKIKQDVEDNTTYTEVDRGAIASDQILVTYTATSSGASLSGLTNTDGKTMILGTDTLGLELDELDQALYGMTPGQTKILIVDIPEDYSSDLYKGTRVVFELTMQTVAQANVPMITNAYVKEAFGYDTVEEYRQSIKESLETDINSKVENKIQEDVLSSLQDTFKISSYPDSLMEETRSRLETSIGFYADFSNLSKDEYCQKQYGLSFDDFVKKSVVQQLIMEAIVKDRNMTMREYDYKGSLDDFAADNGYSNADTFVEKFGKDKIVKAMLVQKAQDYVIEHANISYK
B2: SG-16: 119 amino acid protein (SEQ ID NO:9) encoded by the genome of Eubacterium eligens (protein, listed as Eubacterium eligens)
chain: MTGCSGSKEPDNKTSVDYTVVENADLPEELKKLIESKKDKVMRLTYTTKDYTYVVAGYGTRETSGYSIKVNDVYTGDNALYIDLNLIGPAAGEAVNEVETYPVIVLKMERREESVVFKM
B3: SG-18: 267 amino acid protein (SEQ ID NO:19) encoded by the genome of Clostridium bartlettii sp. nov. (protein, listed as Clostridium bartlettii)
chain: EVDSSKEQATSKDEKQVVVATSVAITEILDRLGVEVSGVPQTSYELPESAKGATEIGSPMNPDMEIIKSLNPTDVICVDTLGSDFEKQFEENNINADFYNLSNVDGLKETIAALGEKFNKQDKANEILDEIKEVENKVNSNKKSDDKILVLFGAPGSVMVATDKSYIGNLVELAGGNNIFSNATSSFTQINLEEIIKLNPDKILVMTHAVPEAAKKSVEEELSKDLWKNVNAVKNNDITYLENGYFGMSANLQIVEAVEKLGDILYE
B4: SG-15: 400 amino acid protein (SEQ ID NO:1) encoded by the genome of Eubacterium eligens (protein, listed as Eubacterium eligens)
chain: EYTEIRTASELVEAAKSASGNYKLMTDIDMTGVEWTPWDFSGTFDGNGHSILNLSVKTVSKKTMKTYDGNRKEYKTYGAGFFGVLTGAKVTGLDIYGARIEITTTEPCFAAPIAGLADDSDISDCIIKDTYVSLTDSAKMWGTGGIAGFGSGNLDNITTDVTLVCVDTDAAVRDEQFMGGAYAAGFLNIRNCSITIDGYDSDHGYVHDGGLVGMYMVYPLELSKTYQGEVLNNKVKGMITFFEDNTDRRAYCQANMGEVMNWTYAYSGFTSDFKRNETYDYSVTLLPEMCSNPSYTDVVTEATASDFGYTTHTCSTCGYTYSDTYTIHEHKVDSYSVVKEAASTDKKDGIEAGTCSLCNQTVYREYAANVVTDDNTQATDNKASGTAVKKGMKESTAVFA

Tests used:
Assay type in all cases: cell-based, human
[1] = tested on: IL-23; test: IL-23 production by monocytes in co-culture TEER assay (Luminex); conditions: for IL-23 production normalized to HK E. coli only (set to 1.0): pre-incubated 6 hours prior to HK E. coli, basolateral supernatant
Description: Production of the cytokines TNF-α, IL-23, and IL-10 by monocytes was measured in the tissue culture supernatant from the basolateral chamber of the co-culture TEER assay performed in Example 1B. Following TEER readings, the supernatants were centrifuged at 10,000 g for 5 minutes at 4° C. to remove cell debris. Luminex analysis was performed according to the manufacturer's instructions (Magpix instrument and xPonent software version 4.2; Luminex Corporation (Austin, TX)). Luminex analysis was performed to determine the […] concentration of TNF-α and IL-23 produced by monocytes. Luminex analysis utilizes a bead-based system for quantification of multiple cytokines from a single sample. Like an ELISA, Luminex beads are coated with a capture antibody, and incubation with samples allows the target to bind to the capture antibody. Beads are washed and incubated with a fluorescently labeled detection antibody for quantification of bound target. Cytometric analysis is used to differentiate bead populations, which are loaded with differential fluorescent dyes, and to quantify cytokine levels by measuring detection antibody signal. TNF-α, IL-23, and IL-10 production in untreated cells and cells pre-incubated with SG-15 for 6 hours prior to HK E. coli treatment was normalized to pg/ml concentrations elicited by HK E. coli only, which was set to 1.0. […] The graphs in FIGS. 2A, 2B and 2C each represent data pooled from an individual experiment (n=3).

[2] = tested on: HCT8 enterocytes and HT29-MTX goblet cells; test: Epithelial cell wound healing (Oris Cell Migration assay); conditions: SG protein 1 μg/ml, EGF 30 ng/ml, staurosporine 100 nM; 48 hours
Description: HCT8 enterocytes and HT29-MTX goblet cells were used in wound healing studies. The 96 well Oris Cell Migration assay containing plugs preventing cell attachment in the center of each well was used according to the manufacturer's instructions (Platypus Technologies, Madison, WI). The migration assay plates were warmed to room temperature prior to use and plugs were removed from 100% confluence wells prior to cell addition. The HCT8 enterocyte and HT29-MTX goblet cell lines were used at a 9:1 ratio with a total of 5×10^4 total cells added per well (4.5×10^4 HCT8 cells and 0.5×10^4 HT29-MTX cells). […] Plugs were then removed from all control and sample wells. Control wells included cells treated with the diluent vehicle as the blank, 30 ng/ml epidermal growth factor (EGF) as the positive control, and 100 nM staurosporine as the negative control, all diluted in cRPMI. Sample wells contained SG-15 protein at a concentration of 1 μg/ml diluted in cRPMI. 100% and 0% wells were cultured in cRPMI. […] Prior to staining for viable cells, plugs were removed from the 0% wells. Treatment media was removed and cells were washed in PBS containing 0.9 mM CaCl2) and 0.5 mM MgCl2. […] Relative fluorescent values from 100% wells where plugs were removed prior to cell plating were set as the max effect, and 0% wells where plugs remained in place until immediately before staining were used as the baseline. Samples were normalized between 100% and 0% samples and values expressed as a percent growth.

[3] = tested on: HCT8 enterocytes and HT29-MTX goblet cells; test: Co-culture trans-epithelial electrical resistance (TEER) assay with heat killed E. coli challenge; conditions: TEER after 24 hours
Description: Assays were performed as described below in trans-well plates where co-cultures of multiple cell types were performed utilizing a permeable membrane to separate cells. In the apical (top) chamber, human colonic epithelial cells, consisting of a mixture of enterocytes and goblet cells, were cultured until cells obtained tight junction formation and barrier function capacity as assessed by measurement of trans-epithelial electrical resistance (TEER). In the basolateral chamber, monocytes were cultured separately. Epithelial cells were primed with inflammatory cytokines. The assays measured the effect of a therapeutic protein, i.e., SG-15, on epithelial barrier function, wound healing, and production of cytokines. Cell culture. The HCT8 human enterocyte cell line (ATCC Cat. No. CCL-244) was maintained in RPMI-1640 medium supplemented with 10% fetal bovine serum, 100 IU/ml penicillin, 100 μg/ml streptomycin, 10 μg/ml gentamicin and 0.25 μg/ml amphotericin (cRPMI). HT29-MTX human goblet cells (Sigma-Aldrich (St. Louis, MO; Cat. No. 12040401) were maintained in DMEM medium with 10% fetal bovine serum, 100 IU/ml penicillin, 100 μg/ml streptomycin, 10 μg/ml gentamicin and 0.25 μg/ml amphotericin (cDMEM). Epithelial cells were passaged by trypsinization and were used between 5 and 15 passages following thawing from liquid nitrogen stocks. U937 monocytes (ATCC Cat. No. 700928) were maintained in cRPMI medium as a suspension culture, and split by dilution as needed to maintain cells between 5×10^5 and 2×10^6 cells/ml. U937 cells were used up to passage 18 following thawing from liquid nitrogen stocks. Epithelial cell culture. A mixture of HCT8 enterocytes and HT29-MTX goblet cells were plated at a 9:1 ratio, respectively, in the apical chamber of the transwell plate as described previously (Berget et al., 2017, Int J Mol Sci, 18:1573; Beduneau et al., 2014, Eur J Pharm Biopharm, 87:290-298). A total of 10^5 cells were plated in each well (9×10^4 HCT8 cells and 1×10^4 HT29-MTX cells per well). Epithelial cells were trypsinized from culture flasks and viable cells determined by trypan blue counting. The correct volumes of each cell type were combined in a single tube and centrifuged. The cell pellet was resuspended in cRPMI and added to the apical chamber of the transwell plate. […] Monocyte culture. On day 6 of epithelial cell culture 2×10^5 cells/well U937 monocytes were plated into a 96 well receiver plate. […] Co-culture assay. […] After 24 hours fresh cRPMI was added to the epithelial cell culture plate. Trans-epithelial electrical resistance (TEER) readings were measured after the IFN-γ treatment and were used as the pre-treatment TEER values. SG-15 was then added to the apical chamber of the transwell plate at a final concentration of 1 μg/ml (40 nM). The myosin light chain kinase (MLCK) inhibitor peptide 18 (BioTechne, Minneapolis, MN) was used at 50 nM as a positive control to prevent inflammation induced barrier disruption (Zolotarevskky et al., 202, Gastroenterology, 123:163-172). The bacterially derived molecule staurosporine was used at 100 nM as a negative control to induce apoptosis and exacerbate barrier disruption (Antonsson and Persson, 2009, Anticancer Res, 29:2893-2898). […] Following pre-incubation with test compounds the transwell insert containing the enterocytes was transferred on top of the receiver plate containing U937 monocytes. Heat killed E. coli (HK E. coli) (bacteria heated to 80° C. for 40 minutes) was then added to both the apical and basolateral chambers and a multiplicity of infection (MOI) of 10. […] The TEER assays were performed with recombinantly expressed mature (lacking a signal peptide) SG-15 protein such as that described in Example 1A above. Data analysis. Raw electrical resistance values in ohms (Ω) were converted to ohms per square centimeter (Ωcm^2) based on the surface area of the transwell insert (0.143 cm^2). […]

[4] = protein 1 μg/ml (40 nM) added 30 minutes before HK E. coli
[5] = protein 1 μg/ml (40 nM) pre-incubated 6 hours before HK E. coli

Molecule	IL-23 production normalized to HK E. coli only (set to 1.0) [1]	Wound healing, percent growth [2]	TEER of epithelial cell barrier (percent of untreated samples) [3, 4]	TEER of epithelial cell barrier (percent of untreated samples) [3, 5]	IL-23 production compared with control cells treated with media only ([1]; cells treated with SG-15 and HK E. coli)
B1	1.10	significant increase in growth	72.0%	about 74.2%	
B2	1.06	significant increase in growth	60.7%	about 60.0%	
B3	1.10	slight increase in growth	71.0%	about 85.0%	
B4	0.57	significant increase in growth	71.4%	68.5%	no significant difference

Source: US12168677B2, “Proteins for the treatment of epithelial barrier function disorders” (Genevive, Inc., priority 2017, dated 2024)
